The values below come from the supplement of paper PMC9170038.

For the series, the system named is MS2 coat protein. In words: apparent KD of MS2 coat protein; designed switch direction (-1 OFF switch, 1 ON switch): -1; higher = weaker reporter binding. The gist of the method:
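The buffer was Tris-HCl pH 7.5 with KCl, MgCl2, BSA, DTT, tRNA and Tween-20. In it, SNAP-549-labelled MS2 coat protein was titrated in doubling steps from 0.7 or 1.5 nM to 3 µM over chip-bound RNA switches transcribed by stalled E. coli RNA polymerase on Illumina chips. Apparent KD is the per-design median over clusters of curve fits to normalised fluorescence.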

The mark [1] stands for this setting: input ligand: microRNA oligo, concentration not stated.
The mark [2] stands for this setting: Eterna round: R95, input ligand: FMN 200 uM.
The mark [3] stands for this setting: Eterna round: R95, input ligand: microRNA oligo, concentration not stated.
[4] abbreviates: Eterna round: R95, input ligand: none.

Take “UUUGUAUAUGAAGGAUAUACUUAACAUGAGGAUCACCCAUGUGGUGUUGUGAGUGAGUGAGUUUAGUAGAAGGUCAAUGAUUUU [JMF's solution 71] (Eterna round: R96, puzzle: Exclusion NG 2)”: the “apparent KD of MS2 coat protein” value (input ligand: FMN 200 uM) came out at 531 nM, the “apparent KD of MS2 coat protein” value under setting [1] amounted to 218 nM and the “apparent KD of MS2 coat protein” value (input ligand: none) was 317 nM.
For “UGAGAACAUGAGGAUCACCCAUGUAAGGAUAUGCGAAGAGUUUGGAGAGGUUGAGGAGGCAGAAGGUACGGGAG [JR_Exclu1_Sub045] (puzzle: Exclusion 1)”, the “apparent KD of MS2 coat protein” value was determined as 50.2 nM under setting [2], 49.9 nM under setting [3] and 74.3 nM under setting [4].
For “AAGAGGAUUACAGGAUAUGAAGCUAAAACGGCGUUAGAAGGGUAUACAGAGUUACAUGAGGAUCACCCAUGUUGUGAUUUCUAA [AK ExNG1-V2-4.2] (Eterna round: R96, puzzle: Exclusion NG 1)”, the “apparent KD of MS2 coat protein” value reads like this: (input ligand: FMN 200 uM) 48.4 nM; under setting [1], 38.4 nM; (input ligand: none) 49.2 nM.
For “AGCCCUGCAGGAUAUGCCCGGGAUAACAUGAGGAUCACCCAUGUGACUGAUUGUUAUUCUGCAGAAGGGUAUGGGA [JL-EX5-4.16 ViennaUCT mod] (Eterna round: R97, puzzle: Exclusion 5)”, the “apparent KD of MS2 coat protein” value reads like this: (input ligand: FMN 200 uM) 404 nM; (input ligand: none) 322 nM.
On to “GUGCCGCGAGGAUAUACAGACGGGUCCAAAACGUGUCUCGGACUUGAGGAUCACCCAAGUAGAAGGCGUAUCAG [salish99_ex2_r4_619] (Eterna round: R97, puzzle: Exclusion 2)”, for which the “apparent KD of MS2 coat protein” value was found to be 27.8 nM (input ligand: FMN 200 uM) and 21.4 nM (input ligand: none).
As to “ACAAGCUUUUUGCUCGGGUACAUGAGGAUCACCCAUGUUUGGGUUUAUUGAGGUUGUGUGGGCGUGCGCUGCAGGUU [JR_SV3TOV1_Sub075] (puzzle: Sensor v3, turn-off variant 1)”, the “apparent KD of MS2 coat protein” value under setting [2] amounted to 87.7 nM, the “apparent KD of MS2 coat protein” value under setting [3] is 243 nM and the “apparent KD of MS2 coat protein” value under setting [4] amounted to 118 nM.
In the same order, the values of “UUACAAUGUCGCUUAUAAGCUUUUUGCUCGUCUUAUAUUACAUGAGGAUCACCCAUGUAGAUCAUGUGGCGUGACCU [JL ViennaUCT Maridi mod 8] (puzzle: Sensor v3, turn-off variant 2)” are 264 nM, 47.9 nM and 345 nM.
“CUUUUGUGAGGAUAUUAGUAGUAAAUAAUUAAAAUUAUUACUGAGAAGGCACAUGAGGAUCACCCAUGUUCCUC [Salish 062 v15] (Eterna round: R97, puzzle: Exclusion 4)”: the “apparent KD of MS2 coat protein” value (input ligand: FMN 200 uM) was found to be 752 nM and the “apparent KD of MS2 coat protein” value (input ligand: none) turned out to be 42.9 nM.
As to “CUGGUCCGAGGAUAUAUUAAGUGAUACAUGAGGAUCACCCAUGUUAUUUAAUGGAUAUUAAUAGAAGGCGGACUAG [Mat - Exclusion 5 - JL mod - D77] (puzzle: Exclusion 5)”, the “apparent KD of MS2 coat protein” value is, setting by setting: under setting [2], 34.1 nM; under setting [3], 28.4 nM; under setting [4], 25.5 nM.
On to “GUUUUGGGAGGAUAUAUGUGGAUAAUUUUUAUAUGAAAUUUACAUGAGGAUCACCCAUGUAGAAGGUCUAGAGC [-18.5, -15.1 kcal, 31% A] (Eterna round: R97, puzzle: Exclusion 2)”, for which the “apparent KD of MS2 coat protein” value (input ligand: FMN 200 uM) came out at 476 nM and the “apparent KD of MS2 coat protein” value (input ligand: none) was 261 nM.
In the case of “CUGCUGGAGCGGCGCUUUGGUCGUACAUGAGGAUCACCCAUGUAGGAUAUGGUAAAAUUUGCUUGCUAGAAGGAUAGAGUGGUC [salish99_ExNG3_r04_615] (Eterna round: R96, puzzle: Exclusion NG 3)”, the “apparent KD of MS2 coat protein” value turned out to be 140 nM (input ligand: FMN 200 uM), 64.5 nM under setting [1] and 80.3 nM (input ligand: none).
In the same order, the values of “UUAAAUCAUGUAGGAUAUGCGUGGCGAAGCUAUGCAGAAGGACAUGAGGAUCACCCAUGUUCAUCCGUCUGCGUACAGAUGGAA [JL Eng1 1.08 mod 1] (Eterna round: R96, puzzle: Exclusion NG 1)” are 271 nM, 21.6 nM and 28.2 nM.
The corresponding values for “GGAAGAGAGAUAGGAUAUUAAAGGAAGAUGGUGAGAGAGACAUGAGGAUCACCCAUGUAAAGGAAUAAGAAGGGUCAGAAGGAA [EXNG2 V2 g] (Eterna round: R96, puzzle: Exclusion NG 2)” are 137 nM, 104 nM and 184 nM.
Consider “GUUUUAUAUGAAGGAUAUACUUAACAUGAGGAUCACCCAUGUGGUGUUGUGAGUGAGUGAGUUUAGUAGAAGGUCAAUUAUUUU [JMF's solution 33] (Eterna round: R96, puzzle: Exclusion NG 2)”, for which the “apparent KD of MS2 coat protein” value (input ligand: FMN 200 uM) was determined as 409 nM, the “apparent KD of MS2 coat protein” value under setting [1] was found to be 174 nM and the “apparent KD of MS2 coat protein” value (input ligand: none) worked out at 184 nM.
“ACAUGUAAUGUAGGAUAUUUUACACAUGAGGAUCACCCAUGUAACCGGAGGCUUUACUAUGAGUAAGAGAAGGGUAUGUACAUG [Ex NG2 #63] (Eterna round: R96, puzzle: Exclusion NG 2)”: the “apparent KD of MS2 coat protein” value reads like this: (input ligand: FMN 200 uM) 90.5 nM; under setting [1], 85.2 nM; (input ligand: none) 131 nM.
“CCGCUGCAAGGAUAUACUUGCGGUGGUGUUCGAGUUCUUUUACUUGAGGAUCACCCAAGUAGAAGGUGCAAAAC [jl-ex2.4.54 ViennaUCT mod] (Eterna round: R97, puzzle: Exclusion 2)”: the “apparent KD of MS2 coat protein” value is, setting by setting: (input ligand: FMN 200 uM) 17.3 nM; (input ligand: none) 16.2 nM.
On to “CGCCUGUAAGGAUAUUAGUAGUAGUCAGAAUAGACUAUUACUGAGAAGGUACAUGAGGAUCACCCAUGUUGGCG [Eli x4 4.10] (Eterna round: R97, puzzle: Exclusion 4)”, for which the “apparent KD of MS2 coat protein” value by setting is: (input ligand: FMN 200 uM) 19.7 nM; (input ligand: none) 18.5 nM.
With “AGUGUGUGGCAGGAUAUUCUAAUCUUUAGGAGGGAAGAAGGGUCUACAUGAGGAUCACCCAUGUAAGCGGUUGA [Ex6 #40] (Eterna round: R97, puzzle: Exclusion 6)”, the “apparent KD of MS2 coat protein” value (input ligand: FMN 200 uM) is 221 nM and the “apparent KD of MS2 coat protein” value (input ligand: none) stood at 75.3 nM.
On to “ACAUGAGGAGAAGGAUAUCUUUAGAGGGUUACCAGAGAAGGUCUAACAUGAGGAUCACCCAUGUCAUGAGGGUCUUGAAUGUUG [10th something] (Eterna round: R96, puzzle: Exclusion NG 1)”, for which the “apparent KD of MS2 coat protein” value by setting is: (input ligand: FMN 200 uM) 145 nM; under setting [1], 151 nM; (input ligand: none) 140 nM.
“UAGAUACAUGAGGAUCACCCAUGUGAGGAUAUGAGAAUUAUAUUAAAUGAAUUAAUUUUCAGAAGGCACAAAGG [JR_Ex1_Sub052] (Eterna round: R97, puzzle: Exclusion 1)”: the “apparent KD of MS2 coat protein” value runs as follows: (input ligand: FMN 200 uM) 177 nM; (input ligand: none) 166 nM.
Regarding “AUUAAAACGGCAGGAUAUCAGCGACAUGAGGAUCACCCAUGUUAGGGCUGACCCUGGAGUCUGGCUGAGAAGGGCCGACUCUCA [Riququ] (Eterna round: R96, puzzle: Exclusion NG 2)”, the “apparent KD of MS2 coat protein” value is, setting by setting: (input ligand: FMN 200 uM) 192 nM; under setting [1], 33.2 nM; (input ligand: none) 59.9 nM.
With “UGUUGUCGCGCAGGAUAUGAGGAUCACCCAUAUACAGGAUAUGAAAAGAAGGGUCUGAGGAUUACCCAGAAGGGCGGGACAACU [pwkr exNG2 2xF5 2xFMN.26] (Eterna round: R96, puzzle: Exclusion NG 2)”, the “apparent KD of MS2 coat protein” value is, setting by setting: (input ligand: FMN 200 uM) 386 nM; under setting [1], 59.1 nM; (input ligand: none) 88 nM.
“GGUCAAGAACAGAACCGCGCUGCCCUUGACCGCUCAUUUACAUGAGGAUCACCCAUGUUUUUUGCUUGUCUUGUUAC [Qugeon] (puzzle: Sensor v3, turn-off variant 2)”: the “apparent KD of MS2 coat protein” value worked out at 16.2 nM under setting [2], 89.6 nM under setting [3] and 17.3 nM under setting [4].
As to “ACAUGAGGAUCACCCAUGUAAACAUAAUGGCUCAUGUAGAGUCAGGAUAUGCGUGGCGAACAAACGCAGAAGGGACAAGACUGG [Deportation 26 - Jieux - Exclusion NG 3] (Eterna round: R96, puzzle: Exclusion NG 3)”, the “apparent KD of MS2 coat protein” value by setting is: (input ligand: FMN 200 uM) 28.1 nM; under setting [1], 30.8 nM; (input ligand: none) 29.6 nM.
Take “UUUGUUUGGUAGGAUAUCAACUAAGAGAGUGGCUGAGAAGGACCAACAUGAGGAUCACCCAUGUCGGUUCCGUU [EX6 C.15] (Eterna round: R97, puzzle: Exclusion 6)”: the “apparent KD of MS2 coat protein” value is, setting by setting: (input ligand: FMN 200 uM) 16.2 nM; (input ligand: none) 14.8 nM.
On to “GUAGAGUCAGGAUAUACAGAAGAAGCAUGGAAAACAUGGAUACAUGAGGAUCACCCAUGUAGAAGGGACUCUAC [ChP 11-04-2015 #2] (puzzle: Exclusion 2)”, for which the “apparent KD of MS2 coat protein” value reads like this: under setting [2], 83.6 nM; under setting [3], 33.2 nM; under setting [4], 41.5 nM.
Consider “GCGCACUAAGUGAGGAUAUCGAUUUCUUUAAGGAUCGAGAAGGCACAUGAGGAUCACCCAUGUUUGACGUGCGC [JR_BMOE4_Sub097] (puzzle: Brourd's mod of Exclusion 4)”, for which the “apparent KD of MS2 coat protein” value under setting [3] came to 15.5 nM.
As for “ACAAGGAUGAAGGAUAUGGAAGAGUGGGAGCCUCCAGAAGGUCGUACAUGAGGAUCACCCAUGUAUUGGGCUUA [Eternabot (L2) Solution 38] (Eterna round: R97, puzzle: Exclusion 6)”, the “apparent KD of MS2 coat protein” value runs as follows: (input ligand: FMN 200 uM) 22.5 nM; (input ligand: none) 21 nM.
In the case of “UGUGUACAUGAGGAUCACCCAUGUCAGGAUAUCUAGGCUCUCUCACUGACAACAGCCAAGAGAAGGGACGAGGU [EX1 B.7] (Eterna round: R97, puzzle: Exclusion 1)”, the “apparent KD of MS2 coat protein” value is, setting by setting: (input ligand: FMN 200 uM) 36.3 nM; (input ligand: none) 29.5 nM.
